Literature values as cited in publication PMC4083100.

Target: FcεRI (Homo sapiens) (UniProt P12319)
UniProt P12319, sequence (P12319 26-257): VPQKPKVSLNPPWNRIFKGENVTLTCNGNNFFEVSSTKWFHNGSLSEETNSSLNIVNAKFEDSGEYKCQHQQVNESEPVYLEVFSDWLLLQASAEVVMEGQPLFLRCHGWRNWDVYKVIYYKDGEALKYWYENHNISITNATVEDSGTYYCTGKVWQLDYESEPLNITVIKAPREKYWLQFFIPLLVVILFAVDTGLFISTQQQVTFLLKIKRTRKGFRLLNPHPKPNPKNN

Question: With IgE (from UniProt P01854) as the substance, how does the Kd read?
Answer: The Kd was < 1 nM.
